Target: Purified Fc fusion protein of Human CTLA4 (human)
Experiment: BLI (Fortebio), CTLA4-Fc immobilized by amine reactive chemistry

## Anti CTLA4 IgG (BioLegend A3.B10.G1) (antibody)
  Kd: 2 nM

— patent US11639389B2
